Results taken from patent US20210196796A1 (SYNTHEKINE, published 2021).

T1: orthogonal hCD122 receptor (hoRb), hCD122 with H133D and Y134F (human, UniProt P14784 27-550)
T1 sequence: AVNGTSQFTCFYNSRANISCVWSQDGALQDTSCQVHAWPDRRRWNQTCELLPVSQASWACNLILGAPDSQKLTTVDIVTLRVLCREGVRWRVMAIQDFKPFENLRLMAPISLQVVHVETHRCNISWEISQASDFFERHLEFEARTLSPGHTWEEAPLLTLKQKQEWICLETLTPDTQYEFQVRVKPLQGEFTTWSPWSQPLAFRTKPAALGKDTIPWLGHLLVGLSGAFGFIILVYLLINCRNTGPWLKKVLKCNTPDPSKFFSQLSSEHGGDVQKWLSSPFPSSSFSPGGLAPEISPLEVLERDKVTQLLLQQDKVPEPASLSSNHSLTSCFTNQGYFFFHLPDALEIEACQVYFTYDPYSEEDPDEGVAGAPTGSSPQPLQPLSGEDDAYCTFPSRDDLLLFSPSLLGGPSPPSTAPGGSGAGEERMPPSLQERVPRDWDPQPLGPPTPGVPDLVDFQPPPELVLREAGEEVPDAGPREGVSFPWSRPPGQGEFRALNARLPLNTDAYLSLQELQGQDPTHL


Legend:
[1] = biological target: T1, orthogonal hCD122 receptor (hoRb), …; assay: cell-based or functional assay
[2] = biological target: T1, orthogonal hCD122 receptor (hoRb), …; assay: cell-based or functional assay; remark: listed apart in the source
For Relative Proliferation Fold Change 3F8 1:10 in this document: reference of the scale not given here.
For Relative Proliferation Fold Change 3F8 1:2 in this document: reference of the scale not given here.
For Relative Proliferation Fold Change 3F8 1:50 in this document: reference of the scale not given here.
For Relative Proliferation Fold Change NKL 1:10 in this document: reference of the scale not given here.
For Relative Proliferation Fold Change NKL 1:2 in this document: reference of the scale not given here.
For Relative Proliferation Fold Change NKL 1:50 in this document: reference of the scale not given here.

Row | NKL Ortho Proliferation Signal 1:2 [1] | NKL Ortho Proliferation Signal 1:10 [1] | NKL Ortho Proliferation Signal 1:50 [1] | Relative Proliferation Fold Change NKL 1:2 [1] [fold] | Relative Proliferation Fold Change NKL 1:10 [1] [fold] | Relative Proliferation Fold Change NKL 1:50 [1] [fold] | 3F8 Ortho Proliferation Signal 1:2 [2] [cts/min] | 3F8 Ortho Proliferation Signal 1:10 [2] [cts/min] | 3F8 Ortho Proliferation Signal 1:50 [2] [cts/min] | Relative Proliferation Fold Change 3F8 1:2 [2] [fold] | Relative Proliferation Fold Change 3F8 1:10 [2] [fold] | Relative Proliferation Fold Change 3F8 1:50 [2] [fold] | Binder
1 | 31800 | 23500 | 12200 | 2.38 | 1.6 | 0.86 | 30300 | 24500 | 8130 | 125 | 26.5 | 13.2 | ΔL14, SQVLKA (ligand) APTSSSTKKTQLQSQLLVLLKAILNGINNYKNPKLTRMLTFKFYMPKKATELKHLQCLEEELKPLEEVLNLAQSKNFHLRPRDLISNINVIVLELKGSETTFMCEYADETATIVEFLNRWITFCQSIISTLT
2 | 60800 | 64600 | 32300 | 4 | 3.73 | 1.99 | 38900 | 34800 | 16000 | 30.5 | 15.1 | 7.52 | ΔT3, SQVLKA (ligand) APSSSTKKTQLQLSQLLVLLKAILNGINNYKNPKLTRMLTFKFYMPKKATELKHLQCLEEELKPLEEVLNLAQSKNFHLRPRDLISNINVIVLELKGSETTFMCEYADETATIVEFLNRWITFCQSIISTLT
3 | 62500 | 51600 | 24300 | 4.26 | 3.13 | 1.58 | 34900 | 34800 | 21200 | 30.6 | 38 | 32.7 | L80V, SQVLKA (ligand) APTSSSTKKTQLQLSQLLVLLKAILNGINNYKNPKLTRMLTFKFYMPKKATELKHLQCLEEELKPLEEVLNLAQSKNFHVRPRDLISNINVIVLELKGSETTFMCEYADETATIVEFLNRWITFCQSIISTLT
4 | 56300 | 49600 | 24200 | 3.94 | 3.34 | 1.71 | 44300 | 41300 | 18900 | 39.9 | 44.6 | 14.3 | L85V, SQVLKA (ligand) APTSSSTKKTQLQLSQLLVLLKAILNGINNYKNPKLTRMLTFKFYMPKKATELKHLQCLEEELKPLEEVLNLAQSKNFHLRPRDVISNINVIVLELKGSETTFMCEYADETATIVEFLNRWITFCQSIISTLT
5 | 6410 | 7090 | 6480 | 0.49 | 0.53 | 0.51 | 326 | 588 | 850 | 1 | 1.2 | 1.44 | N88E, SQVLKA (ligand) APTSSSTKKTQLQLSQLLVLLKAILNGINNYKNPKLTRMLTFKFYMPKKATELKHLQCLEEELKPLEEVLNLAQSKNFHLRPRDLISEINVIVLELKGSETTFMCEYADETATIVEFLNRWITFCQSIISTLT
6 | 39900 | 38000 | 18400 | 3.82 | 2.67 | 1.42 | 34000 | 32600 | 15100 | 0.8 | 3.76 | 3.66 | I86V, SQVLKA (ligand) APTSSSTKKTQLQLSQLLVLLKAILNGINNYKNPKLTRMLTFKFYMPKKATELKHLQCLEEELKPLEEVLNLAQSKNFHLRPRDLVSNINVIVLELKGSETTFMCEYADETATIVEFLNRWITFCQSIISTLT
7 | 71800 | 73800 | 44400 | 3.64 | 4.35 | 3.07 | 39300 | 30000 | 10400 | 7.51 | 13.6 | 11.5 | R81D, SQVLKA (ligand) APTSSSTKKTQLQLSQLLVLLKAILNGINNYKNPKLTRMLTFKFYMPKKATELKHLQCLEEELKPLEEVLNLAQSKNFHLDPRDLISNINVIVLELKGSETTFMCEYADETATIVEFLNRWITFCQSIISTLT
8 | 4980 | 6960 | 6240 | 0.43 | 0.53 | 0.5 | 644 | 914 | 1070 | 1.25 | 0.84 | 0.6 | N88Q, SQVLKA (ligand) APTSSSTKKTQLQLSQLLVLLKAILNGINNYKNPKLTRMLTFKFYMPKKATELKHLQCLEEELKPLEEVLNLAQSKNFHLRPRDLISQINVIVLELKGSETTFMCEYADETATIVEFLNRWITFCQSIISTLT
9 | 52800 | 58000 | 27300 | 3.84 | 3.85 | 1.92 | 40000 | 46000 | 20900 | 55.9 | 48.8 | 49.4 | R81I, SQVLKA (ligand) APTSSSTKKTQLQLSQLLVLLKAILNGINNYKNPKLTRMLTFKFYMPKKATELKHLQCLEEELKPLEEVLNLAQSKNFHLIPRDLISNINVIVLELKGSETTFMCEYADETATIVEFLNRWITFCQSIISTLT
10 | 59800 | 77900 | 49500 | 3.64 | 4.64 | 3.43 | 35800 | 46000 | 16500 | 4.14 | 16.6 | 17.6 | R81Y, SQVLKA (ligand) APTSSSTKKTQLQLSQLLVLLKAILNGINNYKNPKLTRMLTFKFYMPKKATELKHLQCLEEELKPLEEVLNLAQSKNFHLYPRDLISNINVIVLELKGSETTFMCEYADETATIVEFLNRWITFCQSIISTLT
11 | 62400 | 68800 | 31900 | 4.84 | 4.09 | 2.1 | 28600 | 32200 | 22000 | 46.4 | 39 | 24 | ΔR81, SQVLKA (ligand) APTSSSTKKTQLQLSQLLVLLKAILNGINNYKNPKLTRMLTFKFYMPKKATELKHLQCLEEELKPLEEVLNLAQSKNFHLPRDLISNINVIVLELKGSETTFMCEYADETATIVEFLNRWITFCQSIISTLT
12 | 4610 | 7470 | 6690 | 0.42 | 0.59 | 0.58 | 486 | 580 | 666 | 2.59 | 0.79 | 1.33 | Δ88N, SQVLKA (ligand) APTSSSTKKTQLQLSQLLVLLKAILNGINNYKNPKLTRMLTFKFYMPKKATELKHLQCLEEELKPLEEVLNLAQSKNFHLRPRDLISINVIVLELKGSETTFMCEYADETATIVEFLNRWITFCQSIISTLT
